Data: the nanobody polyreactivity screen of Harvey et al. (2022)

experiment: yeast display, Sf9 membrane polyspecificity reagent, FACS + sequencing; frameworks hold sequencing errors
How it was run: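 Nanobodies from a synthetic yeast display library (Saccharomyces cerevisiae BJ5465), induced 36–48 hours with galactose, were stained 1 hour at 4 °C with 10% biotinylated, detergent-solubilized Sf9 membrane reagent, enriched on streptavidin microbeads, then FACS-sorted. Anti-HA (expression) and streptavidin (reagent binding) fluorescence set low and high (top ~1%) gates. Polyreactivity labels come from the gate of origin. Genes were colony-PCR amplified, MiSeq 2 × 250 sequenced and filtered by CDR length.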

Sequence | polyreactivity (PSR sort gate)
QVQLVESGGGLVQAGGSLRLSCAASGIIFPGYAMGLYRQAPGKERELVAAISRSGASTYYADSVKGRFTISRDNAKNTVYLQMNSLKPEDTEVYYCAAEWYLGGEYRRYDYWGQGTQVTVSS | high polyreactivity
QVQLVESGGGLVQAGGSLRLSCAASGIIFPNYAMGWYRPAPGKERELVAAIDDDASTTYADSVKGRFTISRDNAKNTVYLQMNSLKPEDTAVYYFAADGFDWYDWRWTYDYWGQGTQVTVSS | high polyreactivity
QVQLVESGGGLVQAGGSLRLSCAASGIIFPWSTMGWYRQAPGKERELVAAISSGGRTNYADSVKGRFTISRDNAKNTVYLQMNSLKPEDTAVYYCAAKYYRDRDWGQGTQVTVSS | high polyreactivity
QVQLVESGGGLVQAGGSLRLSCAASGIIFPYYAMGWYRQAPGKERELVAAISIDGSTNYAVSVKGRFTISRDNAKNTVYLQMNSLKPEDTAVYYCNTTAFSTYQVGFLYDYWGQGTQVTVSS | low polyreactivity
QVQLVESGGGLVQAGGSLRLSCAASGIIFPYYAMGWYRQAPGKESELVAAISQSGGSTYYADSVKGRFTISRDNAKNTVFFQMNSVKPEDTAVYYCDKFIPSYHDGDYWGQGTQVTVSS | low polyreactivity
QVQLVESGGGLVQAGGSLRLSCAASGIIFPYYTMGGYRQAPGKERELVARITNGGRTYSADSVKGRFTISRDKAKNTVYLQMNSLKPEDTAVYYCAASWGRRKPRMDYWGQGTQVTVSS | high polyreactivity
QVQLVESGGGLVQAGGSLRLSCAASGIIFQIYAKGWYRQAPGKERELVAAISGGGNTDYADSVKGRFTISRDNAKNTVYLQMNSLKPEDTAVYYCAADFVDWVWSRYGLFEHDYWGQGTQVTVSS | low polyreactivity
QVQLVESGGGLVQAGGSLRLSCAASGIIFQQYAMGWYRQAPGKERELVAAITYSGDGTYYADSVKGRFTISRDNANNTVYLQMNSLKPEDTAVYYCAAYPRDPYKEYDYWGQGTQVTVSS | low polyreactivity
QVQLVESGGGLVQAGGSLRLSCAASGIIFQRNDMGWYRQAPGKERELVANIRDGGITYADSVKGRFTISRDNAKNTVYLQMNSLKPEDTAVYYCARDDTSPGYCDQSSNAAYYYWGQGTQVTVSS | low polyreactivity
QVQLVESGGGLVQAGGSLRLSCAASGIIFQSYTMGWYRQAPGKERELVAAIDSGGSTYYADSVKGRFTISRDNAKNTVYVQMNSLKPEDSAVYYCATDYPLYWSTLYDYDYWGQGTQVTVSS | low polyreactivity
QVQLVESGGGLVQAGGSLRLSCAASGIIFRAYAMGWYRPAPGKERELVAAISWSGGSTYYADSVKGRFTISRDNAKNTVYLQMNSLKPEDTAVYYCAAESLVYDFDYWGQGTQVTVSS | high polyreactivity
QVQLVESGGGLVQAGGSLRLSCAASGIIFRDNAMGWYRQAPGTERELVAAIDSSGGTTYADSVKGRFTISRDNAKNTVYLQMNSLKPEDTAVYYCATEVYSTVSYYGYDYYGRNYYYWGQGPQVTVSS | low polyreactivity
QVQLVESGGGLVQAGGSLRLSCAASGIIFRDYGMGWYRQAPGKESEIVATITYSGGGTYYADSVKGRFTISRDNANNTVYLQMNSLKPEDTAVYYCAAYPFYYDLAYDYWGQGTQVTVSS | low polyreactivity
QVQLVESGGGLVQAGGSLRLSCAASGIIFRGNAMGWYRQAHGKERELVAAISSAGSTNYADSVKGRFTISRDNAKNTVYLQMNSLKPEVTAVFYCAKGSIKYHVTLRGRGYYWGQGTQVTVSS | low polyreactivity
QVQLVESGGGLVQAGGSLRLSCAASGIIFRGYAMGWYRQAPGKERELVASITRRGGSTRYADSVKGRFTISRDNAKNTVYLQMNSLKPEDTAVYYCAAVRVHTDRYNYWGQGTQVTVSS | high polyreactivity
QVQLVESGGGLVQAGGSLRLSCAASGIIFRLNTMGWYRQAPGKEREFVAAITSGGSTHYADSVKGRFTISRDNAKNTVYLQMNSLKPEDTAVYYCAAGHRANYWAWHFYYPGDYWGQGTQVTVSS | low polyreactivity
QVQLVESGGGLVQAGGSLRLSCAASGIIFRRYAMGWYRQAPGKERELVAAISSRGGSTYYADSVKRRFTISRDNAKNTVYLQMNSLKPEDTAVYYCAKGFSGTGGSGDFGYWGQGTQVTVSS | high polyreactivity
QVQLVESGGGLVQAGGSLRLSCAASGIIFRRYAMGWYRQAPGKERELVAVITSGGSTNYADSVKGRFTISRDNAKNTVYLQMNSLKPEDTAVYYCAAKGWVYWIRSRYDYWGQGTQVTVSS | high polyreactivity
QVQLVESGGGLVQAGGSLRLSCAASGIIFRSYAMGWYRQAPGKERELVAAITRSGGSTYADSVKGRFTISRDNAKNTVYLQMTSLKPEDTAVYYCAADRYSGWVYRRDYWGQGTQVTVSS | low polyreactivity
QVQLVESGGGLVQAGGSLRLSCAASGIIFRVYAMGWYRQAPGKERELVATITWSGGSTFYADSVKGRFTISRDNAKNPVDLQRNSLTPEDTAVYYCAARGYLRREQLYVLIRYDYWGQGTQVTVSS | low polyreactivity
QVQLVESGGGLVQAGGSLRLSCAASGIIFRWYAMGWYRQAPGKERELVAGITSTTGTTYYADSVKGRFTISRDNAKNTVYLQMNSLKPEDSAVYYCAADYYWYTTAGVVDSFEYWGQGTQVTVSS | low polyreactivity
QVQLVESGGGLVQAGGSLRLSCAASGIIFRWYGMGWYRQAPGKERELVATITSGGRTNYADSVKGRFTISRDNAKNTVYLQMNSLKPEDTAVYYCAAEKWTVRRFNPYTYYRYDYWGQGTQVTVSS | low polyreactivity

Sequence | polyreactivity (PSR sort gate)
QVQLVESGGGLVQAGGSLRLSCAASGIIFRWYTMGWYRQAPGKERELVAAISTSTGSTYYADSVKGRFTISRDNAKNTVYLQMNSLKPEDTAVYYCNARQFSGLGYWGQGTQVTVSS | high polyreactivity
QVQLVESGGGLVQAGGSLRLSCAASGIIFRYNAMGWYRQAPGKARELVAALSFRGGSTRYADSVKGRCTISRDTATNTVYLQMNSLKPEDTAVYYCNAQRRTYIYDYWGQGTQVTVSS | high polyreactivity
QVQLVESGGGLVQAGGSLRLSCAASGIIFRYNAMGWYRQAPGKERELVAAISRSSGSTYYADSVKGRFTISRDNAKNTVYLQMNSLKPEDTAVYYCAAYPRYRVEYWGQGTQVTVSS | high polyreactivity
QVQLVESGGGLVQAGGSLRLSCAASGIIFRYNAMGWYRQAPGKERELVAAISTGGSTNYADSVKGRFTISRDNAKNTVYLQMNSLKPEDTAVYYCAADWHRAYGAYDYWGQGTQVTVSS | low polyreactivity
QVQLVESGGGLVQAGGSLRLSCAASGIIFRYYDMGWYRQAPGKERELVARITSRGGTYYADSVKGRFTISRDNATNTVYLKMNSLKPEDTAVYYCAASYLLTHGYAYNYWGQGTQVTVSS | high polyreactivity
QVQLVESGGGLVQAGGSLRLSCAASGIIFSDYAMGWYRQAPGKERELVAAITGGGSTYYADSVKGRFTISRDNAKNTVYLQMNRLKPEDTAVYYCNADWARLLIRSTEFDYWGQGTQVTVSS | low polyreactivity
QVQLVESGGGLVQAGGSLRLSCAASGIIFSEYAMGWSRQAPGKERELVAAITKSGGSTYYADSVKGRFTISRDNAKNTVYLQMNSLKPEDTAVYYCAKKTPYIRGKDNYWGQGTQVNVSS | low polyreactivity
QVQLVESGGGLVQAGGSLRLSCAASGIIFSFYAMGWYRQAPGKERELVAAISRSGGSTYYADSVKGRFTISRDNEKNSVYLQMNSLKPEDTAVYYCNADNGASYYYRRYDSLGQGTQVTVSS | high polyreactivity
QVQLVESGGGLVQAGGSLRLSCAASGIIFSHYAMGWYRQAPGKERELVAAISSRGGSTYYADSVKGRFTISRDNAKNTVYLQMNSLKPEDTAVYYCNAKWTSHGTYAEDYWGQGTQVTVSS | high polyreactivity
QVQLVESGGGLVQAGGSLRLSCAASGIIFSINAMGWDRQAPGKERELVAAISRSGGSTNYADSVKGRFTISRDNAKNTVYLQMNSLKPEDTAVYYCATVHRYSVWSHNYWGQGTQVTVAS | high polyreactivity
QVQLVESGGGLVQAGGSLRLSCAASGIIFSIYAMGWYRQAPGKERELVAVISRSSGSTYYADSVKGRFTISRDNAKNTVYLQMNSLKPEDTAVYYCAADRYSYGSNGYPRFEYYYWGQGTQVTVSS | high polyreactivity
QVQLVESGGGLVQAGGSLRLSCAASGIIFSIYTMGRYRQAPGKERELVAAINRSGSRTYYADSVKGRFTISRDNAKNTVYLQMNSLKPEDTAVYYCAAGTGSRDYYWGQGTQVTVSS | high polyreactivity
QVQLVESGGGLVQAGGSLRLSCAASGIIFSLNTMGWYRQAPGKERELVAAISSSGGSTYYADSVKGRFTISRDNAKNTVYLQMTSLKPEDTAVYYCARRYAPNTSLTFYYWGQGTQVTVSS | low polyreactivity
QVQLVESGGGLVQAGGSLRLSCAASGIIFSPYAMGRYRQAPGKERELVAAITYSGDTTYYADSVKGRFTISRDNAKNTVYLQMNSLKPEDTAVYYCAVEDAGQGGDYWGQGTQVTVSS | low polyreactivity
QVQLVESGGGLVQAGGSLRLSCAASGIIFSPYAMGWYRQAPVKERELVAAISYSGGSTYYADSVKGRFTISRDNAKNTVYLQMNSLKPEDTAVYYCAVVYSYYLAVLGYWDYDYWGQGTQVTVSS | low polyreactivity
QVQLVESGGGLVQAGGSLRLSCAASGIIFSRYVMGWSRQAPGKERELVAAISGSGGSTYYADSVKGRFTISRDNAKNTVYLQMNSLKPEDTAVYYCAKRRSWSNRIYGYWGQGTQVTVSS | high polyreactivity
QVQLVESGGGLVQAGGSLRLSCAASGIIFSSNAMGWYRQAPGKERELVAAISRRGGSTYYADSVKGRFTISRDNAKNTVYLQMNSLKPEDTAVYYCNALLYNGAGYDYWGQGTQVTVSS | high polyreactivity
QVQLVESGGGLVQAGGSLRLSCAASGIIFSSYAMGWYRQAPGKERELVAAISLSGGSTYYADSVKGRFTISRDNAKNTVYLQMNSLKPEDTAVFYCNTVRQRARFTKVDYWGQGTQVTVSS | high polyreactivity
QVQLVESGGGLVQAGGSLRLSCAASGIIFSSYGMGWYRQAPGKERELVAAIRWSTGNTYYADSVKGRFTISRDNAKNTVYLQMNSLKPEDTAVYYCAKRSSWGYHFYYWGQGTQVTVSS | high polyreactivity
QVQLVESGGGLVQAGGSLRLSCAASGIIFSWYDMGWYRKAPGKERELVAAISSGDRTNYADSVKGRFTISRDNAKNTVYLQMNSLKPEDTAVYYCAADLFPIAGEYDYWGQGTQVTVSS | high polyreactivity
QVQLVESGGGLVQAGGSLRLSCAASGIIFSYNAMGWYRQAPGKERELVAAITRRGTRTYYADSVKGRFTISRDNAKNTVYLQMNSLKPEDSAVYYCAADYVRPGTKYDYWGQGTQVTVSS | high polyreactivity
